T1: LGR5-478 (exo domain of LGR5 without the CRL region) (UniProt O75473 22-478)
T1 construct: domain: exo domain of LGR5 without the CRL region; Purified protein
T1 sequence (looked up): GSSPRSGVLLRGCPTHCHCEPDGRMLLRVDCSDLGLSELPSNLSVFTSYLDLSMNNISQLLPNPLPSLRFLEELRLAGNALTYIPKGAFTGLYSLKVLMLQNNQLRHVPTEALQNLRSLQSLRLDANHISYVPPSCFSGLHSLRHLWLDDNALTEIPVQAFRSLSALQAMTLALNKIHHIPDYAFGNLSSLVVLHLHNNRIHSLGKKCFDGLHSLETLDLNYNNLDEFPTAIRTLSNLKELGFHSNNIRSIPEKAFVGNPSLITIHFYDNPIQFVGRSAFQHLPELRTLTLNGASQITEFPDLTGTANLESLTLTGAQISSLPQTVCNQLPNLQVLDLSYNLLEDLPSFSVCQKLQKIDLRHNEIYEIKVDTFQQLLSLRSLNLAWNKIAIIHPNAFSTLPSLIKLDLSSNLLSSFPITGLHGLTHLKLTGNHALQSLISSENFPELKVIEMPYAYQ

T2: Lgr5 ΔN (deletion of the extreme N-terminus of Lgr5, amino acids 28-50) (UniProt O75473 22-907)
T2 construct: whole, on cells; Deletion construct
T2 sequence (looked up): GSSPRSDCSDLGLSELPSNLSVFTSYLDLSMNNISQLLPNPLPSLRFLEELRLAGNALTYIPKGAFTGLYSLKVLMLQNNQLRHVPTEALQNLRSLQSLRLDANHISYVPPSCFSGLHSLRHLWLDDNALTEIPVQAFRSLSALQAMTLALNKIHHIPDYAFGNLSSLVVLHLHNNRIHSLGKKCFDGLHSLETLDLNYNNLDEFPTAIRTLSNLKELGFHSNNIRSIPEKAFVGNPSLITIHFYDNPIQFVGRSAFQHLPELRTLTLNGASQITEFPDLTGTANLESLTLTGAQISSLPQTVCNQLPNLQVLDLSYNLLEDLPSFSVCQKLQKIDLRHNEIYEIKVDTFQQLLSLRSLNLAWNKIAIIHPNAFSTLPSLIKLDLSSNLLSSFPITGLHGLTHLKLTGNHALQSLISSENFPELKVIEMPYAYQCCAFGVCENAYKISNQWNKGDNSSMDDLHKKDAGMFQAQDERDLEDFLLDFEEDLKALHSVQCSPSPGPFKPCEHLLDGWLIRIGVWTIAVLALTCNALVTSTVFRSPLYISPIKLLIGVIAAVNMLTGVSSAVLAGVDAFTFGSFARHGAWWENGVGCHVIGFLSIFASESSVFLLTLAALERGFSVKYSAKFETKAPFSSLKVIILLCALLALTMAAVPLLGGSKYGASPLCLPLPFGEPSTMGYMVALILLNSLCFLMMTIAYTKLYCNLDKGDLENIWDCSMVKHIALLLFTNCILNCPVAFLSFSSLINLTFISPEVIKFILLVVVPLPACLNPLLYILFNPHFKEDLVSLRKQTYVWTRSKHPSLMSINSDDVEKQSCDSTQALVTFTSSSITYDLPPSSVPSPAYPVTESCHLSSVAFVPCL

T3: Lgr5 ΔLRR1-17 (deletion of N-terminus and entire LRR region) (UniProt O75473 22-907)
T3 construct: whole, on cells; Deletion construct
T3 sequence (looked up): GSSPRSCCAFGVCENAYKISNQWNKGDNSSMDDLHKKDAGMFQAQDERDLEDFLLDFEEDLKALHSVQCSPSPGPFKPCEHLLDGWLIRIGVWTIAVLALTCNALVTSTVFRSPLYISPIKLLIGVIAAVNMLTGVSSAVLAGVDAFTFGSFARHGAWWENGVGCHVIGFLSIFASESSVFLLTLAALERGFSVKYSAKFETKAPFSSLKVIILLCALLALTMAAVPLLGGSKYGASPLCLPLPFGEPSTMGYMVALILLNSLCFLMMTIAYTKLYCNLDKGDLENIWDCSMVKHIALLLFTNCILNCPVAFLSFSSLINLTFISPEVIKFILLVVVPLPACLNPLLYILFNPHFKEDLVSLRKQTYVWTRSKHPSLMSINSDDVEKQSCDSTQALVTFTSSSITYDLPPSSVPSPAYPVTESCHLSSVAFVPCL

T4: control Lgr7 (Homo sapiens (Human), UniProt Q9HBX9 1-757)
T4 construct: not shown: the sister constructs are FH-tagged
T4 sequence: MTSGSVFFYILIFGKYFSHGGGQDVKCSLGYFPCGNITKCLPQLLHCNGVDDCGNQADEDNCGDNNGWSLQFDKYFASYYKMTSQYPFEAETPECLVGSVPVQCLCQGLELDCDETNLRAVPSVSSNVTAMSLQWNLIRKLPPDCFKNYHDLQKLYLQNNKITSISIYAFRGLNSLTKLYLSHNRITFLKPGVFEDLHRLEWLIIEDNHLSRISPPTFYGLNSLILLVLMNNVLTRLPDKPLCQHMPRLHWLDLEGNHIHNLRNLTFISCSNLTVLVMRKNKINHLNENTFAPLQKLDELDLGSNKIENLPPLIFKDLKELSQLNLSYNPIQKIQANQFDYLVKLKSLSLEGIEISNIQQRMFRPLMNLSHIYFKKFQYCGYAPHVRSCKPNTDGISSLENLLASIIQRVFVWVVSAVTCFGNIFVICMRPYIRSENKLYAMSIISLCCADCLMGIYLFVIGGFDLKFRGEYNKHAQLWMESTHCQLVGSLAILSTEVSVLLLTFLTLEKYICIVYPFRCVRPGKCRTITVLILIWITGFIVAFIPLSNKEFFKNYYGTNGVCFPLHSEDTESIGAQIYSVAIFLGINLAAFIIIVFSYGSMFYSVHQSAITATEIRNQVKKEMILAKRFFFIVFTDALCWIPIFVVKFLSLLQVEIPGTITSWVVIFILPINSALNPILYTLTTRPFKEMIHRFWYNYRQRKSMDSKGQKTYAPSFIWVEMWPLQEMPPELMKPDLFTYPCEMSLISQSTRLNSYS


Key:
[1] = molecular target: T1, LGR5-478 (exo domain of LGR5 without …); experiment: gel filtration of purified proteins
tagged Frizzled5 (Frz5) = molecular target: T5, tagged Frizzled5 (Frz5) (UniProt Q13467 27-585, limits assumed); experiment: Rspo1-Fc pull-down (proteinG beads) from transfected HEK293T cells, FLAG western blot
T5 construct: whole, on cells; also called double-tagged Frizzled5; Frz5 bait; not shown: FLAG/HA tag
T5 sequence (Q13467 27-585 limits assumed): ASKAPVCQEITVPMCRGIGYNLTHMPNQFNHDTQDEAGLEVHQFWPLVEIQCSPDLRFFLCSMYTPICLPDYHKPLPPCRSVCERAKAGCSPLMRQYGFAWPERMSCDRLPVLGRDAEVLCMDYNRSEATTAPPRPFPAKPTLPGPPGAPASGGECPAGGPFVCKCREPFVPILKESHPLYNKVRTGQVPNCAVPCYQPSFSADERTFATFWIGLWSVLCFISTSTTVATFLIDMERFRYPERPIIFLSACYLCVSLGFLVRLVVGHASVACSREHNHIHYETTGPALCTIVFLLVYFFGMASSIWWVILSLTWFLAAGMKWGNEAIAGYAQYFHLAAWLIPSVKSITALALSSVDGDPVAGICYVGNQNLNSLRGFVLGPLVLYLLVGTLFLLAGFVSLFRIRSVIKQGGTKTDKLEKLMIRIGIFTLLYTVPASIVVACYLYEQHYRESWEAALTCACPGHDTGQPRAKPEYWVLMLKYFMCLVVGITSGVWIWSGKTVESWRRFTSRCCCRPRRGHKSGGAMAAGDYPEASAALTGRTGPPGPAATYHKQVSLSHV

[2] = molecular target: T2, Lgr5 ΔN (deletion of the extreme …); experiment: right panels: incubation with Rspo1 after cell lysis, FLAG immunoprecipitation, anti-hIgG-Fc Western blot
[3] = molecular target: T3, Lgr5 ΔLRR1-17 (deletion of N-terminus …); experiment: as above
control Lgr7 = molecular target: T4, control Lgr7; experiment: HEK293T cells transfected with the tagged Lgr, incubated with Rspo1-Fc, protein G immunoprecipitation, anti-FLAG Western blot
Description: FIG. 7A: Rspondin1 binds to Lgr4, Lgr5 and Lgr6. […] Bottom: Input of tagged proteins.

binding result [1] | binding result (tagged Frizzled5 (Frz5)) | binding result [2] | binding result [3] | binding result (control Lgr7) | Binder
no binding |  |  |  |  | antibody 1D9 (antibody, V domains shown, Rat monoclonal antibody against human Lgr5; hybridoma LMBP 6961CB; also called Ab1; 1D9 A5) VH: EVKLQESGAALVKPGASVKLSCKASGYTFTDYYIHWVKQSHGKSLEWIGYINPNSGYTNYNEKFKSKATLTVDKSTNTAYMELSRLTSEDSATYYCTRFGSYWYFDFWGQGTTVTVSS VL: MTQSPTSMSISIGDRVTMNCKASQNVDSNVDWYQQKTGQSPKLLIYKASNRYTGVPDRFTGSGSGTDFTFTISNMQAEDLAVYYCMQSNSYPLTFGSGTKLEIKR
 | no binding (tested: ˜1 µg/ml) | no binding | no binding | no binding (tested: ~1 µg/ml) | Rspo1-Fc fusion protein (Fc fusion, also called Rspondin1 IgFc fusion protein; not shown: Fc (IgFc) part) SRGIKGKRQRRISAEGSQACAKGCELCSEVNGCLKCSPKLFILLERNDIRQVGVCLPSCPPGYFDARNPDMNKCIKCKIEHCEACFSHNFCTKCKEGLYLHKGRCYPACPEGSSAANGTMECSSPAQCEMSEWSPWGPCSKKQQLCGFRRGSEERTRRVLHAPVGDHAACSDTKETRRCTVRRVPCPEGQKRRKGGQGRRENANRNLARKESKEAGAGSRRRKGQQQQQQQGTVGPLTSAGPA

Source: US20140044713A1 (KONINKLIJKE NEDERLANDSE AKADEMIE VAN WETENSCHAPPEN, published 2014)
